Results from patent US6359127B1, “MCH2, an apoptotic cysteine protease, and compositions for making and methods of using the same” (Thomas Jefferson University, priority 1995, dated 2002).

B1: ICEγ: isoform of interleukin-1 β converting enzyme (ICE), expressed as GST-fusion protein (protein)
chain: MADKVLKEKRKLFIRSMGEAPQAVQDNPAMPTSSGSEGNVKLCSLEEAQRIWKQKSAEIYPIMDKSSRTRLALIICNEEFDSIPRRTGAEVDITGMTMLLQNLGYSVDVKKNLTASDMTTELEAFAHRPEHKTSDSTFLVFMSHGIREGICGKKHSEQVPDILQLNAIFNMLNTKNCPSLKDKPKVIIIQACRGDSPGVVWFKDSVGVSGNLSLPTTEEFEDDAIKKAHIEKDFIAFCSSTPDNVSWRHPTMGSVFIGRLIEHMQEYACSCDVEEIFRKVRFSFEQPDGRAQMPTTERVTLTRCFYLFPGH
B2: CPP32: human Cpp32 (Mch1) apoptotic cysteine protease, expressed as GST-fusion protein (protein)
chain: MENTENSVDSKSIKNLEPKIIHGSESMDSGISLDNSYKMDYPEMGLCIIINNKNFHKSTGMTSRSGTDVDAANLRETFRNLKYEVRNKNDLTREEIVELMRDVSKEDHSKRSSFVCVLLSHGEEGIIFGTNGPVDLKKITNFFRGDRCRSLTGKPKLFIIQACRGTELDCGIETDSGVDDDMACHKIPVEADFLYAYSTAPGYYSWRNSKDGSWFIQSLCAMLKQYADKLEFMHILTRVNRKVATEFESFSFDATFHAKKQIPCIVSMLTKELYFYH
B3: Mch2α: full length Mch2 isoform, 293 amino acid ~34 kDa Ced-3/ICE-like cysteine protease, SEQ ID NO:5 (protein)
chain: MSSASGLRRGHPAGGEENMTETDAFYKREMFDPAEKYKMDHRRRGIALIFNHERFFWHLTLPERRRTCADRDNLTRRFSDLGFEVKCFNDLKAEELLLKIHEVSTVSHADADCFVCVFLSHGEGNHIYAYDAKIEIQTLTGLFKGDKCHSLVGKPKIFIIQACRGNQHDVPVIPLDVVDNQTEKLDTNITEVDAASVYTLPAGADFLMCYSVAEGYYSHRETVNGSWYIQDLCEMLGKYGSSLEFTELLTLVNRKVSQRRVDFCKDPSAIGKKQVPCFASMLTKKLHFFPKSN
B4: Mch2β: alternatively spliced shorter Mch2 isoform, 204 amino acid ~23 kDa protein, SEQ ID NO:7 (protein)
chain: MSSASGLRRGHPAVSTVSHADADCFVCVFLSHGEGNHIYAYDAKIEIQTLTGLFKGDKCHSLVGKPKIFIIQACRGNQHDVPVIPLDVVDNQTEKLDTNITEVDAASVYTLPAGADFLMCYSVAEGYYSHRETVNGSWYIQDLCEMLGKYGSSLEFTELLTLVNRKVSQRRVDFCKDPSAIGKKQVPCFASMLTKKLHFFPKSN
B5: ICE: mammalian interleukin-1 β converting enzyme, expressed from recombinant ICE baculovirus as control (protein)
chain: B1 chain

Tests used:
[1] = tested on: DEVD-AMC (SEQ ID NO:3); assay: cleavage of fluorogenic peptide DEVD-AMC by bacterial extracts expressing GST-fusion enzymes; format: biochemical; conditions: for ability to cleave the DEVD substrate: total bacterial extracts, GST-fusion proteins
Description: (§1) To determine the enzymatic activity of Mch2, CPP32 or ICE, these enzymes were expressed in E. coli as fusion proteins with glutathione S-transferase (GST). A GST-CPP32-p20 fusion protein that contains amino acids 1-175 of CPP32 and a GST nonfusion protein were used as controls. After induction with IPTG, bacterial extracts were prepared from E. coli expressing the recombinant fusion proteins. The extracts were absorbed to glutathione-Sepharose resin, washed several times and then analyzed by SDS-PAGE. The ICEγ, CPP32 and Mch2α preparations containing GST-fusion proteins ranged in size from ˜28-35 kDa. The GST nonfusion protein control migrated as a ˜27-28 kDa protein. […] Aps26 of ICEγ which corresponds to Asp 119 of ICEα is a site that is cleaved during ICE activation. Cleavage at this site would generate a GST-fusion protein with a predicted molecular mass of ˜29 kDa that might correspond to the 31 kDa band. Cleavage at Asp 3 of ICEγ, although it is not a known ICE cleavage site, could generate the 28 kDa band (lane 2). Similar to the GST-ICEγ preparation, the GST-CPP32 and GST-Mch2 preparations contain smaller than predicted GST fusion products. The GST-CPP32 fusion product migrates as a ˜29-30 kDa protein. Cleavaae at Asp9 or Asp28 of CPP32 would generate products with predicted molecular masses of ˜27.3 kDa or ˜29.4 kDa, respectively. Based on the observed size of the GST-CPP32 product, CPP32 is most probably cleaved at Asp28, although it is possible that both sites are cleaved during CPP32 autoprocessing. Unlike the GST-CPP32 which contains full length CPP32, the GST-CPP32-p20 product which contains a truncated CPP32 migrates as a ˜46 kDa protein that agreed with its predicted molecular mass. […] Therefore if CPP32 is cleaved at Asp28, CPP32 appears to be made up of two subunits of relative molecular masses of 17 kDa and 11 kDa. However, the exact Asp cleavage sites that are utilized to generate active CPP32 remains to be determined by amino acid sequencing. The GST-Mch2α preparation contains two major bands that migrate as ˜31-32 kDa and ˜34-35 kDa proteins. This is consistent with cleavage at Asp23, Asp32 or Asp40 of Mch2α. These GST-Mch2α cleavage products are larger than the GST-CPP32 product because of the presence of extra 33 amino acids in the GST-Mch2α fusion construct that are derived from the 5′ untranslated region of Mch2α. A minor band of ˜27 kDa is also present in this preparation that could be due to cleavage at a site near the C-terminus of the GST peptide itself. The majority of GST-Mch2β was expressed in E. coli in […] and was not cleaved.
After establishing that Mch2 and CPP32 can autoprocess in bacteria, their enzymatic activity were tested using two fluorogenic peptide substrates, YVAD-AMC (SEQ ID NO:8) and DEVD-AMC (SEQ ID NO:3). […]

[2] = tested on: YVAD-AMC (SEQ ID NO:8); assay: cleavage of fluorogenic peptide YVAD-AMC by bacterial extracts expressing GST-fusion enzymes; format: biochemical; conditions: for ability to cleave the YVAD substrate: total bacterial extracts, GST-fusion proteins
Description: as §1
After establishing that Mch2 and CPP32 can autoprocess in bacteria, their enzymatic activity were tested using two fluorogenic peptide substrates, YVAD-AMC (SEQ ID NO:8) and DEVD-AMC (SEQ ID NO:3). The YVAD (SEQ ID NO:8) […] is the ICE cleavage site in pro-IL1β and the DEVD (SEQ ID NO:9) tetrapeptide is a site present in PARP that is cleaved by an ICE-like protein during apoptosis. The enzymatic activities of Mch2α, Mch2β, CPP32 and ICEγ, in total bacterial extracts from cells expressing these enzymes as GST-fusion proteins was studied using the YVAD-AMC (SEQ ID NO:8) and DEVD-AMC (SEQ ID NO:3) tetrapeptides as substrates. […] The purified GST-fusion products or the GST control extract had no enzymatic activity with either of the substrates.

[3] = tested on: human PARP; assay: Western blot analysis of PARP cleavage after incubation with recombinant enzyme; format: biochemical; conditions: Western blot with 4C10-5 antibody
Description: In apoptotic cells, nuclear proteins such as PARP, lamins and the 70-kDa protein component of the U1 small nuclear ribonucleoprotein are cleaved specifically by an unknown ICE-like cysteine protease(s). Cleavage of human PARP at the DEVD (SEQ ID NO:9) site (amino acid 211-214) would generate a large protein product of predicted molecular mass of 89.3 kDa (amino acids 215-1014). Western blot analysis of human PARP after incubation with recombinant Mch2α, Mch2β, ICEγ or CPP32 was performed using the 4C10-5 antibody. This antibody recognizes an epitope in the 41 kDa C-terminal chymotryptic fragment of PARP. CPP32 cleaved PARP to generate a major band of ˜90 kDa and a minor band of 57 kDa. The 90 kDa band was most probably generated by cleaving the DEVD (SEQ ID NO:9) site at residue 214 of PARP. This cleavage product is believed to correspond to an 85 kDa PARP cleavage product which has been described in apoptotic cells. The 57 kDa cleavage product is probably generated by cleavage at a site C-terminal to the DEVD (SEQ ID NO:9) site. This product was not detected with the C-2-10 antibody used in a previous study. This is probably because it recognizes an epitope that is N-terminal to the epitope that is recognized by the 4C10-5 antibody used in the present study. Mch2α also cleaved PARP to generate a major product of ˜83 kDa and a minor product of ˜57 kDa similar to that obtained with CPP32. PARP was not cleaved by Mch2β or ICEγ. […] Furthermore, the deletion in Mch2β abrogates its enzymatic activity.

[4] = tested on: Sf9 cells; assay: apoptosis of Sf9 cells infected with recombinant baculovirus expressing the protein; format: cell-based, insect; conditions: polyhedron promoter
Source text: To test whether expression of Mch2α has a similar apoptotic effect, Sf9 cells were infected with a recombinant baculovirus expressing Mch2α or Mch2β under the polyhedron promoter. Cells were also infected with the wild type virus and the recombinant ICE baculovirus as controls.

| Molecule | ability to cleave the DEVD substrate [1] | activity in cleaving the YVAD substrate relative to CPP32 ([2]; ICEγ versus CPP32) | ability to cleave the YVAD substrate [2] | cleavage of PARP [3] | activity in cleaving the DEVD substrate relative to ICEγ or Mch2α ([1]; from initial rate of the reactions, assuming similar amount of each enzyme in extracts) | characteristic signs of apoptosis (membrane blebbing, nuclear fragmentation and condensation, internucleosomal DNA cleavage) [4] | viability of infected cells [4] |
| --- | --- | --- | --- | --- | --- | --- | --- |
| B1 | able to cleave | about 3 fold | able to cleave | not cleaved | – | – | – |
| B2 | able to cleave | – | able to cleave | cleaved PARP | ~150 fold | – | – |
| B3 | able to cleave | – | No detectable enzymatic activity | cleaved PARP | – | several characteristic signs of apoptosis | decrease in viability |
| B4 | – | – | No detectable enzymatic activity | not cleaved | – | – | – |
| B5 | – | – | – | – | – | several characteristic signs of apoptosis | – |
